Test results taken from patent publication US20010010923A1, “MODIFIED CARBOXYPEPTIDASE” (priority 1997, published 2001).
Marks after values point to notes of the source that are not given here.

Key:
[1] = Transpeptidation of Bz-G-A-R-A-R-A-OH (arginine at P1) with H-Leu-NH2, Table 1; assay type: biochemical; details: [N] 375 mM H-Leu-NH2; 2mM substrate; pH 7.5; [E] 0.1 mg/mL
Method: The mutant carboxypeptidase enzvmes used in these studies were produced by site-directed mutagenesis, essentially following the procedures described in published PCT Patent Application No. WO 95/20039. In general, oligonucleotides synthesized to encode the amino acid substitution were used to produce the mutant enzymes.
(§1) Transamidation reactions were carried out generally as described in PCT Application WO 95/20039. In general, the method included dissolving the nucleophile (H-Leu-NH2, unless otherwise indicated) in 50 mM HEPES, 5 mM EDTA and adjusting the pH to 7.5, 5 μl of peptide substrate (8 mM Bz-G-A-R-A-R-A-OH, unless otherwise indicated, in methanol) was added to 190 μl nucleophile solution followed by 5 μl enzyme, […]
(§2) During the reaction, 20 μl aliquots were removed from the reaction mixture and added to 50 μl 1% trifluoroacetic acid to quench the reaction. The reactant composition was determined by HPLC using a Waters HPLC equipped with a C-18 Waters Novapac 4μ reverse phase column and various gradients of acetonitrile in 0.1% trifluoroacetic acid. The separation was monitored at 254 nm allowing the direct quantification of the products from the integrated peak areas. The composition of the reaction mixture was determined at least twvice during the reaction, the first when 20-50% (preferably 35%) of the substrate had been consumed in the reaction and the second time when 50-90% (preferably 80%) of the peptide substrate had been consumed.
The reaction products were collected and identified by amino acid analysis after acid hydrolysis using a Pharmacia Alpha Plus analyzer. Further identification was obtained by co-chromatography of authentic standard compounds.
(§3) The fraction of aminolysis (fa) was expressed as the ratio between the formed aminolysis product and the sum of all products formed. Unconsumed substrate was disregarded in the calculations.

[2] = Transpeptidation of Bz-G-A-R-A-R-X-OH at pH 7.5 at 50% substrate consumption, Table 4; assay type: biochemical; design: key to fa: fraction: aminolysis product / sum of all products formed; details: for Pmax (peak product yield) / fa: 375 mM H-Leu-NH2
Outline: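 Transamidation was performed by dissolving the H-Leu-NH2 nucleophile in 50 mM HEPES with 5 mM EDTA at pH 7.5, then adding the Bz-G-A-R-A-R-X-OH peptide substrate in methanol followed by enzyme. Aliquots were quenched in 1% trifluoroacetic acid and analysed by C-18 reverse-phase HPLC at 254 nm. The fraction of aminolysis was the aminolysis product divided by all products formed.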

[3] = Transpeptidation of Bz-G-A-R-A-R-X-OH at pH 6.5 at 50% substrate consumption, Table 5; assay type: biochemical; design: key to fa: fa = aminolysis product / sum of all products formed; details: for Pmax (peak product yield) / fa: 750 mM H-Leu-NH2; for fa / t: 50% substrate consumption; for t: 750 mM H-Leu-NH2, 2 mM substrate, [E] 0.1 mg/mL
Method: Transamidation reactions were carried out generally as described in PCT Application WO 95/20039. In general, the method included dissolving the nucleophile (H-Leu-NH2, unless otherwise indicated) in 50 mM HEPES, […], 5 μl of peptide substrate (8 mM Bz-G-A-R-A-R-A-OH, unless otherwise indicated, in methanol) was added to 190 μl nucleophile solution followed by 5 μl enzyme, resulting in a substrate concentration of 0.2 mM.
as §2
The fraction of aminolysis (fa) was expressed as the ratio between the formed aminolysis product and the sum of all products formed. Unconsumed substrate was disregarded in the calculations. […]

[4] = Transamidation of Bz-G-A-R-A-R-A-OH, Table 6; assay type: biochemical; details: [S] = 2 mM; H-Leu-NH2 375 mM; pH 7.5; [E] 0.1 mg/mL
Method: as §1, §2, §3
Site specific mutagenesis was performed as described for Example 1 to generate the specific mutants described below. Transamidation reactions were performed as described in the previous examples.

[5] = Transamidation of FA-Arg-Ala-OH, Table 6; assay type: biochemical; details: [S] = 2 mM; H-Leu-NH2 375 mM; pH 7.5; [E] 0.1 mg/mL
[6] = Transamidation of Bz-G-A-R-A-R-A-OH, Table 6; assay type: biochemical; details: [S] = 2 mM; H-Leu-NH2 375 mM; pH 7.5; [E] 0.1 mg/mL; remark: listed apart in the source
[7] = Transpeptidation of FA-Ala-Xaa-OH with H-Gly-NH2, Table 2; assay type: biochemical; details: 1.9 M H-Gly-NH2, pH 7.5, room temperature
Outline: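 Enzyme reacted with 0.2 mM peptide substrate and nucleophile in 50 mM HEPES, 5 mM EDTA, pH 7.5; aliquots quenched in 1% TFA. Products quantified by reverse-phase HPLC at 254 nm at two conversion points (20-50% and 50-90% substrate consumed). Fraction of aminolysis = aminolysis product over all products, ignoring unconsumed substrate.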

[8] = Transpeptidation of FA-Ala-OBzl with H-Leu-NH2, Table 3; assay type: biochemical; details: FA-Ala-OBzl 0.2 mM; H-Leu-NH2; pH 7.5
Outline: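 Site-directed mutant enzymes were reacted with H-Leu-NH2 in 50 mM HEPES, 5 mM EDTA, pH 7.5, with acyl-donor substrate at 0.2 mM final. Products were quantified by C-18 RP-HPLC at 254 nm at about 35% and 80% substrate consumption. fa is aminolysis product over all products; famax is fa at nucleophile saturation, and KN(app) is the nucleophile concentration giving famax/2.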

[9] = ratio of hydrolysis rates, background statement; cited from earlier work
[10] = leaving group A, 50% substrate consumption
[11] = leaving group A, 50% substrate consumption, 375 mM H-Leu-NH2, 2 mM substrate, [E] 0.1 mg/mL
[12] = leaving group I, 50% substrate consumption
[13] = leaving group L, 50% substrate consumption
[14] = leaving group M, 50% substrate consumption
[15] = leaving group V, 50% substrate consumption

B1: L178S: carboxypeptidase Y S1 mutant, substitution L178S (protein, UniProt P00729 112-532, looked up, variant L178S)
Carboxypeptidase Y: KIKDPKILGIDPNVTQYTGYLDVEDEDKHFFFWTFESRNDPAKDPVILWLNGGPGCSSLTGLFFELGPSSIGPDLKPIGNPYSWNSNATVIFLDQPVNVGFSYSGSSGVSNTVAAGKDVYNFLELFFDQFPEYVNKGQDFHIAGESYAGHYIPVFASEILSHKDRNFNLTSVLIGNGSTDPLTQYNYYEPMACGEGGEPSVLPSEECSAMEDSLERCLGLIESCYDSQSVWSCVPATIYCNNAQLAPYQRTGRNVYDIRKDCEGGNLCYPTLQDIDDYLNQDYVKEAVGAEVDHYESCNFDINRNFLFAGDWMKPYHTAVTDLLNQDLPILVYAGDKDFICNWLGNKAWTDVLPWKYDEEFASQKVRNWTASITDEVAGEVKSYKHFTYLRVFNGGHMVPFDVPENALSMVNEWIHGGFSL
fa (fraction of aminolysis) [1]: 0.72 | Pmax (peak product yield) ([2]; leaving group A): 0.63 | fa [2, 10]: 0.73 | t [2, 11]: 14 min | Pmax (peak product yield) ([2]; leaving group I): 0 | fa [2, 12]: 0 | t ([2]; leaving group I, 50% substrate consumption, 375 mM H-Leu-NH2, 2 mM substrate, [E] 0.1 mg/mL): 26 min | Pmax (peak product yield) ([2]; leaving group L): 0.01 | fa [2, 13]: 0.01 | t ([2]; leaving group L, 50% substrate consumption, 375 mM H-Leu-NH2, 2 mM substrate, [E] 0.1 mg/mL): 2.1 min | Pmax (peak product yield) ([2]; leaving group M): 0 | fa [2, 14]: 0 | t ([2]; leaving group M, 50% substrate consumption, 375 mM H-Leu-NH2, 2 mM substrate, [E] 0.1 mg/mL): 28 min | Pmax (peak product yield) ([2]; leaving group S): 0.38 | fa ([2]; leaving group S, 50% substrate consumption): 0.65 | t ([2]; leaving group S, 50% substrate consumption, 375 mM H-Leu-NH2, 2 mM substrate, [E] 0.1 mg/mL): 790 min | Pmax (peak product yield) ([2]; leaving group V): 0 | fa [2, 15]: 0 | t ([2]; leaving group V, 50% substrate consumption, 375 mM H-Leu-NH2, 2 mM substrate, [E] 0.1 mg/mL): 40 min | Pmax (peak product yield) ([3]; leaving group A): 0.74 | fa ([3]; leaving group A): 0.79 | t ([3]; leaving group A): 34 min | Pmax (peak product yield) ([3]; leaving group L): 0.03 | fa ([3]; leaving group L): 0.03 | t ([3]; leaving group L): 17 min | Pmax (peak product yield) ([3]; leaving group S): 0.63 | fa ([3]; leaving group S): 0.34 | t ([3]; leaving group S): 108 min | Pmax [4]: 0.61 | Pmax [5]: 0.76 | fa [5]: 0.89 | fa [6]: 0.77

B2: Wild type: wild type (native) carboxypeptidase Y (protein, UniProt P00729 112-532, looked up)
Carboxypeptidase Y: KIKDPKILGIDPNVTQYTGYLDVEDEDKHFFFWTFESRNDPAKDPVILWLNGGPGCSSLTGLFFELGPSSIGPDLKPIGNPYSWNSNATVIFLDQPVNVGFSYSGSSGVSNTVAAGKDVYNFLELFFDQFPEYVNKGQDFHIAGESYAGHYIPVFASEILSHKDRNFNLTSVLIGNGLTDPLTQYNYYEPMACGEGGEPSVLPSEECSAMEDSLERCLGLIESCYDSQSVWSCVPATIYCNNAQLAPYQRTGRNVYDIRKDCEGGNLCYPTLQDIDDYLNQDYVKEAVGAEVDHYESCNFDINRNFLFAGDWMKPYHTAVTDLLNQDLPILVYAGDKDFICNWLGNKAWTDVLPWKYDEEFASQKVRNWTASITDEVAGEVKSYKHFTYLRVFNGGHMVPFDVPENALSMVNEWIHGGFSL
fa (fraction of aminolysis) [1]: 0.05 | Fraction of aminolysis (fa), P1' Ala ([7]; FA-Ala-Ala-OH 0.2 mM): 0.90 | Fraction of aminolysis (fa), P1' Leu ([7]; FA-Ala-Leu-OH 0.2 mM): 0.20 | Fraction of aminolysis (fa), P1' Met ([7]; FA-Ala-Met-OH 0.2 mM): 0.18 | Fraction of aminolysis (fa), P1' Phe ([7]; FA-Ala-Phe-OH 0.2 mM): 0.04 | Fraction of aminolysis (fa), P1' Val ([7]; FA-Ala-Val-OH 0.2 mM): 0.16 | fa [8]: 0.95^a | Pmax (peak product yield) ([2]; leaving group A): 0 | fa [2, 10]: <0.05 | t(min) [2, 11]: ca. 110000 min | Pmax (peak product yield) ([2]; leaving group I): 0 | fa [2, 12]: <0.05 | Pmax (peak product yield) ([2]; leaving group L): 0 | fa [2, 13]: <0.05 | Pmax (peak product yield) ([2]; leaving group M): 0 | fa [2, 14]: <0.05 | Pmax (peak product yield) ([2]; leaving group V): 0 | fa [2, 15]: <0.05 | FA-Arg-Ala-OH hydrolyzed more slowly than FA-Leu-Ala-OH [9]: about 500 times
